Measured values: article PMC12905498 (Biochemical Journal, 2026)

B1: Plasmodium berghei HAP2 domain 3 (domain or fragment)
chain: VSIATITHVTIPNDCASNNSNSNECVLIIHVWNNSKFVGSNFSCSIACTNKETDQLASHINPIAPVRAFIGPNKNYAFYFIIKFLINKEITTLCKAIVKDSNGKECSIEEFELQSKESVH
notes: source: Sf21 cells (baculovirus), purified as PfHAP2 D3 (Ni-NTA, SEC)
B2: Plasmodium falciparum HAP2 domain 3 (PfHAP2 D3 HisAvi), deglycosylated (domain or fragment)
chain: VSYGTITHITIPKDCSSNQTNSKECILVVHTWNNNKTIGANFSCHVLCVDKSTQQVATHISPISKINAHIDANKNYAFYFIIKFLINKKITSNCTAILKDADGRECSKLSFNLTSKETIN
B3: Pfs48/45 Domain 3 (domain or fragment)
chain: KVIHGCNFSSNVSSKHTFTDSLDISLVDDSAHISCNVHLSEPKYNHLVGLNCPGDIIPDCFFQVYQPESEELEPSNIVYLDSQINIGDIEYYEDAEGDDKIKLFGIVGSIPKTTSFTCICKKDKKSAYMTVTIDSA
notes: as for B1
B4: anti-PbHAP2 D3 mAb 6.14 (variable regions in AbVec-hIgG1 and AbVec-IgKappa) (antibody, V domains shown)
VH: EVQLVESGGGLVKPGGSLKLSCAASEFTFSDYGMHWVRQAPEKGLEWVASISSGSNSIYYSDTVKGRFTISRDNAKSILFLQMTSLRSEDTAMYYCSREAYFAMDYWGQGTSVTVSS
VL: DIQMTQSPSSLSAILGGKVTITCKASQDIHKYIAWYQHKPGKGPRLLIYYTSTLQPGIPSRFSGSGSGRDYSFSISNLEPEDVATYFCLQYDNLYTFGGGTKVEIE
notes: also called anti-PbHAP2 mAb 6.14; source: Expi293 cells, transient transfection (1:1 light and heavy chain plasmids), purified as the nanobody-Fcs (HiTrap PrismA)
B5: Plasmodium vivax HAP2 domain 3 (domain or fragment)
chain: VSTATITHITTPKNCSSNQSESKDCVLIVHTWNNSANVGSNFSCHVICTDKETGKIATHIGPISPVNAFIDANKNYAFYFIIKFLINKEIKTMCKAVLRDSNGKECSKEDFLLTSKE
notes: as for B1

What was measured:
Details in all cases: both partners purified
[1] = target: T1, WNbFc 333 (nanobody WNb 333 fused to hinge and Fc of human IgG1) (alpaca); assay: BLI
T1 construct: also called WNb 333 nanobody-Fc; source: Expi293 cells, transient transfection, purified (HiTrap PrismA)

[2] = target: T2, WNbFc 334 (nanobody WNb 334 fused to hinge and Fc of human IgG1) (alpaca); assay: BLI; affinity: nanobody-Fcs or antibodies (5 µg/ml) loaded on anti-human IgG Fc Capture (AHC) tips, two-fold dilution series of antigen; PBS pH 7.4, 0.1% BSA, 0.05% TWEEN-20, 25°C; 1:1 Langmuir model; mean of two experiments
T2 construct: also called WNb 334 nanobody-Fc; source: Expi293 cells, transient transfection, purified (HiTrap PrismA)

[3] = target: T1, WNbFc 333 (nanobody WNb 333 fused to …); assay: as above
[4] = target: T3, WNbFc 335 (nanobody WNb 335 fused to hinge and Fc of human IgG1) (alpaca); assay: as above
T3 construct: also called WNb 335 nanobody-Fc; source: Expi293 cells, transient transfection, purified (HiTrap PrismA)

[5] = target: T1, WNbFc 333 (nanobody WNb 333 fused to …); assay: ELISA
[6] = target: T2, WNbFc 334 (nanobody WNb 334 fused to …); assay: ELISA
[7] = target: T3, WNbFc 335 (nanobody WNb 335 fused to …); assay: ELISA
[8] = target: B2; assay: BLI; affinity: nanobody-Fcs or antibodies (5 µg/ml) loaded on anti-human IgG Fc Capture (AHC) tips, two-fold dilution series of antigen; PBS pH 7.4, 0.1% BSA, 0.05% TWEEN-20, 25°C; 1:1 Langmuir model; mean of two experiments

Binder: B1
- binding result [1]: binds
- binding result [2]: binds

Binder: B2
- Kd [3]: 15.8 nM
- Kd [2]: 26.1 nM
- Kd [4]: 50.8 nM

Binder: B3
- binding result [5]: no binding (tested: 125 nM)
- binding result [6]: no binding (tested: 125 nM)
- binding result [7]: no binding (tested: 125 nM)

Binder: B4
- binding result [8]: no binding

Binder: B5
- binding result [1]: binds
